Residues, ends and D or L forms follow the SMILES beside them.
Columns and labels:
ERK2 [1] = target: T1, ERK2 (Rattus norvegicus, UniProt P63086); assay: Steady-state kinetics: inhibition of Ets phosphorylation by ERK2; type: biochemical; details: 1 mM MgATP
T1 construct: made in house
Description: Activated tagless ERK2 was generated essentially as described in (Kaoud, T.S. et al. manuscript in preparation). Expression and purification of Ets-1 (1-138) was followed by the method described in the previously published literature.
(§1) zReactions were carried out at 27°C in kinase assay buffer (25 mM HEPES pH 7.4, 100 mM KCl, 2 mM DTT, 40 µg/mL BSA, and 20 mM MgCl2) containing 2 nM ERK2 and varied concentrations of substrates and inhibitors. Rates were measured under conditions where total product formation represented less than 10% of the initial substrate concentrations. The reaction was incubated for 10 min before initiation by addition of enzyme and quantified as described previously. Initial rates were determined by linear least squares fitting to plots of product against time. Reciprocal plots of 1/v against 1/s were checked for linearity, before the data were fitted to eqn. 1 using a non-linear least squares approach, assuming equal variance for velocities, using the program Kaleidagraph 3.5 (Synergy software). The intercepts [drawing 1] and slopes [drawing 2] obtained from these fits were then plotted against either the inhibitor concentration (i) (for inhibition experiments) or the reciprocal of the non-varied substrate concentration (1/s) (for initial velocity experiments). These plots were used to determine the appearance of the overall kinetic equation. Values for kinetic constants were then obtained using the program Scientist (Micromath) by fitting the kinetic data to the relevant over-all equation. Data conforming to a sequential initial velocity pattern were fitted to eqn 2; data conforming to linear competitive inhibition were fitted to eqn. 3; data conforming to hyperbolic mixed inhibition were fitted to eqn. 4. Dose-response curves for data conforming to linear inhibition were fitted to eqn. 5; and for data conforming to hyperbolic inhibition to eqn. 6. [drawing 3] (1) [drawing 4] (2) [drawing 5] (3) [drawing 6] (4) [drawing 7] (5) [drawing 8] (6)

ERK2 [2] = target: T1, ERK2; assay: Steady-state kinetics: inhibition of Δ23N-Ets phosphorylation by ERK2; type: biochemical; details: Δ23N-Ets 50 µM, 1 mM MgATP, Lig-D 0–200 µM (eqn 6) or Lig-F 0–400 µM (eqn 5); fitted k0 5.5±0.1 s^−1 (Lig-D), 5.4±0.1 s^−1 (Lig-F); read-out: K50, concentration giving half the maximal change in kobs for phosphorylation of Δ23N-Ets
Description: as §1, with “Data conforming to a sequential initial velocity pattern were fitted to eqn 2; data conforming to linear competitive inhibition were fitted to eqn. 3; data conforming to hyperbolic mixed inhibition were fitted to eqn. 4. Dose-response curves for data conforming to linear inhibition were fitted to eqn. 5; and for data conforming to hyperbolic inhibition to eqn. 6. [drawing 3] (1) [drawing 4] (2) [drawing 5] (3) [drawing 6] (4) [drawing 7] (5) [drawing 8] (6)” left out

ERK2 [3] = target: T1, ERK2; assay: Steady-state parameters for phosphorylation of Ets and N-terminal Ets mutants by ERK2; type: biochemical; details: phosphorylation by ERK2 (2 nM), 27°C
Description: pET-28a Ets was PCR amplified with a forward primer containing an NdeI site (encoding the initial methionine) followed by the codon encoding Phe-24 (5′-GG GAATTCCATATGTTCCCTTCCCCGGACATG-3′) and an outer reverse primer (5′-GCTAGTTATTGCTCAGCGGTGG-3′) using the following PCR conditions: 94°C for 5 min to denature the complementary strands; 30 cycles of 55°C for 30 sec to anneal the primers, extension for 1 min at 72°C, followed by a denaturation step at 94°C for 45 sec; complementary strands were extended a final 10 min at 72°C. The N-terminal mutant PCR product was digested with NdeI and HindIII and ligated into NdeI-HindIII digested pET-28a. All proteins produced from pET-28a have an N-terminal sequence of […]- prior to the initial methionine encoded by the Ets cDNA giving EtsΔ24-138 an approximate mass of 15, 391 Da whereas Ets 1-138 has a mass of 17, 681 Da (lacking the initial methionine).
pET28a-Ets was modified by overlap extension polymerase chain reaction to construct the single cysteine mutant of Ets (C99A/C106A/C112A) in an Ets S26A background as reported elsewhere. Mutations were produced by a single-step PCR reaction using the following PCR amplification reaction (50 µL) contained Phusion DNA polymerase GC buffer, 200 µM each of the four deoxynucleoside triphosphates, 2 mM MgCl2, 3% DMSO, 80 ng of template DNA (Ets-C31 pET28a vector), 0.5 µM primers forward and reverse, and 1 µL of Phusion DNA polymerase (Finnzymes, USA, Product # F-530-S). […]
zReactions were carried out at 27°C in kinase assay buffer (25 mM HEPES pH 7.4, 100 mM KCl, 2 mM DTT, 40 µg/mL BSA, and 20 mM MgCl2) containing 2 nM ERK2 and varied concentrations of substrates and inhibitors. Rates were measured under conditions where total product formation represented less than 10% of the initial substrate concentrations. The reaction was incubated for 10 min before initiation by addition of enzyme and quantified as described previously. Initial rates were determined by linear least squares fitting to plots of product against time. […]

ERK2 [4] = target: T1, ERK2; details: stopped-flow; cited from earlier work
Description: Since the seminal paper by Wright the role of intrinsically disordered regions of proteins has been a topic of great interest. […] In fact, many docking sites for the DRS of a MAPK are found at the extreme termini of MAPK ligands, such as the upstream activators the MKKs, and may be disordered. For examp ...

[5] = fit of Lig-D inhibition data (Fig. 5D), eqn 4, Ets 3–59 µM
[6] = fit of Lig-F inhibition data (Fig. 5B), eqn 3, Ets 2–12 µM
[7] = 25 mM HEPES pH 7.4, 100 mM KCl, 20 mM MgCl2

T1 sequence (P63086 whole entry): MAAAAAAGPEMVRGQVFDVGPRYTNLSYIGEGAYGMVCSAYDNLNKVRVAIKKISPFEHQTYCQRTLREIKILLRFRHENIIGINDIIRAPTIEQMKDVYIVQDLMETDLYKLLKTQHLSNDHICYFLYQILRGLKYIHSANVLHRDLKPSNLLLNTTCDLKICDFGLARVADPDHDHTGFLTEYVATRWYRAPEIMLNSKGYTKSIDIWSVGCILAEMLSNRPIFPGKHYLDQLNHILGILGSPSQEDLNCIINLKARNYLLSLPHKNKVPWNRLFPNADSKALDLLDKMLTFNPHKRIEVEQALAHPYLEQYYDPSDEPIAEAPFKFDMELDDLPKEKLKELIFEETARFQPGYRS

## CC(=O)N[C@@H](Cc1ccc(O)cc1)C(=O)N[C@@H](C)C(=O)N1CCC[C@H]1C(=O)N[C@@H](CCCNC(=N)N)C(=O)N[C@@H](C)C(=O)N1CCC[C@H]1C(=O)N[C@@H](C)C(=O)N[C@@H](CCCCN)C(=O)N[C@@H](CC(C)C)C(=O)N[C@@H](C)C(=O)N[C@@H](Cc1ccccc1)C(=O)N[C@@H](CCC(N)=O)C(=O)N[C@@H](Cc1ccccc1)C(=O)N1CCC[C@H]1C(=O)N[C@@H](CO)C(=O)N[C@@H](CCCNC(=N)N)C(N)=O [Lig-F] (Ac-YAPRAPAKLAFQFPSR-NH2)
ERK2 [1]; Ets 6.4 µM, peptide 0–400 µM, 2 nM ERK2, 27°C, HEPES pH 7.4, fit eqn 6 (Lig-D, partial) or eqn 5 (Lig-F, full), fitted k0 8.0±0.2 s^−1 (Lig-D), 10.3±0.2 s^−1 (Lig-F), read-out: K50, concentration giving half the maximal change in kobs for phosphorylation of Ets
  IC50: 33.5 ± 1.9 µM
ERK2 [1]; Lig-F 0–200 µM, Ets 2–12 µM, fit eqn 3, read-out: apparent competitive inhibition constant (Ki), full linear competitive inhibition vs Ets
  Ki: 22 ± 1.9 µM
ERK2 [2]
  IC50: 43 ± 2 µM

B1: Ets: His-tagged murine Ets-1 residues 1-138, ERK2 substrate; N-terminus MKAAVDLKPTLTII (protein, UniProt P27577 1-138, looked up, fragment)
chain: MKAAVDLKPTLTIIKTEKVDLELFPSPDMECADVPLLTPSSKEMMSQALKATFSGFTKEQQRLGIPKDPRQWTETHVRDWVMWAVNEFSLKGVDFQKFCMSGAALCALGKECFLELAPDFVGDILWEHLEILQKEDVK
modifications: His tag
ERK2 [1]; [5]
  apparent Michaelis constant for Ets: 6.3 ± 1.7 µM
  apparent catalytic constant for Ets phosphorylation: 14.1 ± 1.3 s⁻¹
ERK2 [1]; [6]
  apparent Michaelis constant for Ets: 5.6 ± 0.7 µM
  apparent catalytic constant for Ets phosphorylation: 14.9 ± 0.8 s⁻¹
ERK2 [3]; 25 mM HEPES pH 7.4
  k cat/K m: 1e+06 M⁻¹ s⁻¹
ERK2 [3]; [7]
  K m: 17.0 ± 4.0 µM
  k cat: 18.0 ± 2.0 s⁻¹

B2: phospho Ets: Ets phosphorylated by ERK2 (on Thr-38), product of the reaction (protein, UniProt P27577 1-138, looked up, fragment)
chain: MKAAVDLKPTLTIIKTEKVDLELFPSPDMECADVPLLTPSSKEMMSQALKATFSGFTKEQQRLGIPKDPRQWTETHVRDWVMWAVNEFSLKGVDFQKFCMSGAALCALGKECFLELAPDFVGDILWEHLEILQKEDVK
modifications: phosphorylated Thr38; His tag
notes: Ets phosphorylated by ERK2 (on Thr-38), product of the reaction
ERK2 [4]
  rate constant for association k on: 5e+06 M⁻¹ s⁻¹
  rate constant for dissociation k: > 100 s⁻¹
